We go through 5 molecules from article PMC4491694, “New Variants of Tomato Thymidine Kinase 1 Selected for Increased Sensitivity of E. coli KY895 towards Azidothymidine” (Cancers, 2015).

The target in series [1] is T1, ToTK1 (Solanum lycopersicum, UniProt Q71F77).
T1 construct: full length, 234 residues; GST fusion from pGEX-2T, thrombin-cleaved, recombinant
T1 sequence (Q71F77 1-234): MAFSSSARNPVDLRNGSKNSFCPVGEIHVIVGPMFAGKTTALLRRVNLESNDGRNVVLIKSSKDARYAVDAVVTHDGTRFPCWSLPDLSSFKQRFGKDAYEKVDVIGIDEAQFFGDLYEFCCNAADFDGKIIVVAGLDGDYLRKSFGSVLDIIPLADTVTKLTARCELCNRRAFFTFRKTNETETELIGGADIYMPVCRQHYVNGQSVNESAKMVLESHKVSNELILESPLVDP
The series can be described thus: nucleoside kinase assay, 3H-labelled nucleoside substrate. Format: biochemical. The following applies: read-out: IC50 dTTP (μM) / dThd. The source says: (§1) nucleoside kinase assay, 3H-labelled nucleoside substrate on ToTK1

In series [2] the target is T2, ToTK1 (Solanum lycopersicum, UniProt Q71F77, N123S/T78A).
T2 construct: full length, 234 residues; GST fusion from pGEX-2T, thrombin-cleaved, recombinant
T2 sequence (Q71F77 1-234 T78A/N123S): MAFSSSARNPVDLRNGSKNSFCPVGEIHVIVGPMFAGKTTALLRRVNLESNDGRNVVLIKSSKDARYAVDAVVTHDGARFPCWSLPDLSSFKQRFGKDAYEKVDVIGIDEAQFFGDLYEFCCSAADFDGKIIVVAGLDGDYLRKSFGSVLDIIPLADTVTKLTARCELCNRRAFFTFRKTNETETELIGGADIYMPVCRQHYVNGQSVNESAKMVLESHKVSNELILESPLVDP
Described as above. The series is classed as biochemical. The note with it: read-out: IC50 dTTP (μM) / dThd.
Description: as §1

The target in series [3] is T2, ToTK1. The series can be described thus: nucleoside kinase assay, 3H-labelled nucleoside substrate; Ki equals IC50. Format: biochemical. The note with it: read-out: dThd. The text has this:
nucleoside kinase assay, 3H-labelled nucleoside substrate; Ki equals IC50 on ToTK1

Series [4] has as its target T3, ToTK1ΔC25 (Solanum lycopersicum, UniProt Q71F77).
T3 construct: last 25 C-terminal residues of the 234-residue protein deleted (residues 210-234, borders derived); GST fusion from pGEX-2T, thrombin-cleaved, recombinant
T3 sequence (Q71F77 1-209): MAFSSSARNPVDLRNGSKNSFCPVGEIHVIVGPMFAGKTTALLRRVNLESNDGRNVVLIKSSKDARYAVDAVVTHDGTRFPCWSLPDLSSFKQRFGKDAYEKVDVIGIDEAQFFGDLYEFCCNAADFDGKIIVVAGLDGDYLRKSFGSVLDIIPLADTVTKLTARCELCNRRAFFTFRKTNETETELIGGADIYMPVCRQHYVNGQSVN
The series can be described thus: nucleoside kinase assay, 3H-labelled nucleoside substrate. Format: biochemical. The note with it: read-out: IC50 dTTP (μM) / dThd. The text has this: nucleoside kinase assay, 3H-labelled nucleoside substrate on ToTK1ΔC25

The target of series [5] is T1, ToTK1. The series can be described thus: nucleoside kinase assay, 3H-labelled nucleoside, Michaelis-Menten fit. Format: biochemical. The following applies: labelled compound (3H). The text has this:
(§2) nucleoside kinase assay, 3H-labelled nucleoside, Michaelis-Menten fit on ToTK1

Series [6] concerns the target T4, ToTK1 (Solanum lycopersicum, UniProt Q71F77, T78A/N123S).
T4 construct: full length, 234 residues; GST fusion from pGEX-2T, thrombin-cleaved, recombinant
T4 sequence (Q71F77 1-234 T78A/N123S): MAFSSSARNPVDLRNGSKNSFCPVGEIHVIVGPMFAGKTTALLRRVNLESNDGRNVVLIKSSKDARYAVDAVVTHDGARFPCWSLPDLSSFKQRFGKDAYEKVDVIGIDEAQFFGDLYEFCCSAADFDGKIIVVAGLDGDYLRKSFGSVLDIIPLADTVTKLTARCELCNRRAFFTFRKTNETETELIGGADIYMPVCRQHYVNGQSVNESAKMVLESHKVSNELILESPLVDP
The description is as above. Format: biochemical. The following applies: labelled compound (3H).
Description: as §2

The target of series [7] is T3, ToTK1ΔC25. Described as above. The series is classed as biochemical. The note with it: labelled compound (3H). The source says: (§3) nucleoside kinase assay, 3H-labelled nucleoside, Michaelis-Menten fit on ToTK1ΔC25
Substrate in series [8]: O=c1ccn([C@H]2C[C@H](O)[C@@H](CO)O2)c(=O)[nH]1
The series is described as above. The series is classed as biochemical, Solanum lycopersicum. The following applies: labelled compound (3H).
Description: as §2

Substrate in series [9]: Cc1cn([C@H]2C[C@H](O)[C@@H](CO)O2)c(=O)[nH]c1=O
The description is as above. Format: biochemical, Solanum lycopersicum. The following applies: labelled compound (3H).
Description: as §2

Substrate in series [10]: O=c1ccn([C@H]2C[C@H](O)[C@@H](CO)O2)c(=O)[nH]1
The series is described as above. Format: biochemical, Solanum lycopersicum. The following applies: labelled compound (3H).
Description: as §3
This is another data set of the same source.

In the case of `Cc1cn([C@H]2C[C@H](O)[C@@H](COP(=O)(O)OP(=O)(O)OP(=O)(O)O)O2)c(=O)[nH]c1=O` [dTTP], the IC50 in series [1] came out at 49.1 ± 1.7 µM; in series [2] it was 55.6 ± 5.2 µM; in series [4] it was 65.2 ± 6 µM. Further, the Ki in series [3] came to 55.6 µM.

Take `Cc1cn([C@H]2C[C@H](N=[N+]=[N-])[C@@H](CO)O2)c(=O)[nH]c1=O` [AZT, 3-azido-2,3-dideoxythymidine]: the Km in series [5] is 1.2 ± 0.04 µM; in [6] it was 1.1 ± 0.1 µM; in [7], 2 ± 0.06 µM.

B1: ToTK1 (Solanum lycopersicum; N123S/T78A) (protein)
chain: MAFSSSARNPVDLRNGSKNSFCPVGEIHVIVGPMFAGKTTALLRRVNLESNDGRNVVLIKSSKDARYAVDAVVTHDGARFPCWSLPDLSSFKQRFGKDAYEKVDVIGIDEAQFFGDLYEFCCSAADFDGKIIVVAGLDGDYLRKSFGSVLDIIPLADTVTKLTARCELCNRRAFFTFRKTNETETELIGGADIYMPVCRQHYVNGQSVNESAKMVLESHKVSNELILESPLVDP
notes: full length, 234 residues; GST fusion from pGEX-2T, thrombin-cleaved, recombinant
With B1, in [8], the Km stood at 15 ± 3.3 µM, the maximal velocity (Vmax) is 1.9 µmol/min/mg, the kcat stood at 0.82 s⁻¹ and the kcat/Km was 54700 M⁻¹ s⁻¹. For the same molecule, in [9], the Km was determined as 1.3 ± 0.36 µM, the Vmax came to 1.6 µmol/min/mg, the kcat was found to be 0.69 s⁻¹ and the kcat/Km was found to be 531000 M⁻¹ s⁻¹.

B2: ToTK1 (Solanum lycopersicum) (protein)
chain: MAFSSSARNPVDLRNGSKNSFCPVGEIHVIVGPMFAGKTTALLRRVNLESNDGRNVVLIKSSKDARYAVDAVVTHDGTRFPCWSLPDLSSFKQRFGKDAYEKVDVIGIDEAQFFGDLYEFCCNAADFDGKIIVVAGLDGDYLRKSFGSVLDIIPLADTVTKLTARCELCNRRAFFTFRKTNETETELIGGADIYMPVCRQHYVNGQSVNESAKMVLESHKVSNELILESPLVDP
notes: as for B1
With B2, in [8], the Km was found to be 17 ± 0.5 µM, the Vmax came to 3.4 µmol/min/mg, the turnover number (kcat) was 1.47 s⁻¹ and the kcat/Km amounted to 86500 M⁻¹ s⁻¹.

B3: ToTK1ΔC25 (Solanum lycopersicum) (protein)
chain: MAFSSSARNPVDLRNGSKNSFCPVGEIHVIVGPMFAGKTTALLRRVNLESNDGRNVVLIKSSKDARYAVDAVVTHDGTRFPCWSLPDLSSFKQRFGKDAYEKVDVIGIDEAQFFGDLYEFCCNAADFDGKIIVVAGLDGDYLRKSFGSVLDIIPLADTVTKLTARCELCNRRAFFTFRKTNETETELIGGADIYMPVCRQHYVNGQSVN
notes: last 25 C-terminal residues of the 234-residue protein deleted (residues 210-234, borders derived); GST fusion from pGEX-2T, thrombin-cleaved, recombinant
Regarding B3, in series [10], the Michaelis constant (Km) came to 27 ± 3.3 µM, the Vmax was 4 µmol/min/mg, the kcat was determined as 1.54 s⁻¹ and the specificity constant (kcat/Km) was 57000 M⁻¹ s⁻¹.
